Data: patent publication US20250101098A1 (R P SCHERER TECHNOLOGIES, published 2025)

T1: human nectin-4 protein expressed on the surface of cells (human, UniProt Q96NY8 32-510)
T1 sequence: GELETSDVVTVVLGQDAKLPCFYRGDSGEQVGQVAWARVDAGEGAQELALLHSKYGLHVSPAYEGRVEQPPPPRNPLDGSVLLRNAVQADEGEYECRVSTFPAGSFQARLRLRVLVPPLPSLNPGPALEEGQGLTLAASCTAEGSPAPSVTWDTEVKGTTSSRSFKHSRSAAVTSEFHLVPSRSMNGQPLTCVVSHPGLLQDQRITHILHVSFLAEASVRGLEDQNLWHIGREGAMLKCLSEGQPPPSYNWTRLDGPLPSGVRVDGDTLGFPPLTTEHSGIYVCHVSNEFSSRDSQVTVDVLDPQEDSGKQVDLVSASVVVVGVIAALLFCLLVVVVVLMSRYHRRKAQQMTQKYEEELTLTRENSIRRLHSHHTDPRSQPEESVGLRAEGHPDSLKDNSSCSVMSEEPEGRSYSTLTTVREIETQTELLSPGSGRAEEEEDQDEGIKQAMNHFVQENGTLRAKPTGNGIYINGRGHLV

T2: recombinant human Nectin-4-His protein (human, UniProt Q96NY8 32-349)
T2 construct: Rescreening antigen and bought ELISA antigen are treated as one molecule; also called human Nectin-4-His tagged; Ag1; not shown: His tag
T2 sequence: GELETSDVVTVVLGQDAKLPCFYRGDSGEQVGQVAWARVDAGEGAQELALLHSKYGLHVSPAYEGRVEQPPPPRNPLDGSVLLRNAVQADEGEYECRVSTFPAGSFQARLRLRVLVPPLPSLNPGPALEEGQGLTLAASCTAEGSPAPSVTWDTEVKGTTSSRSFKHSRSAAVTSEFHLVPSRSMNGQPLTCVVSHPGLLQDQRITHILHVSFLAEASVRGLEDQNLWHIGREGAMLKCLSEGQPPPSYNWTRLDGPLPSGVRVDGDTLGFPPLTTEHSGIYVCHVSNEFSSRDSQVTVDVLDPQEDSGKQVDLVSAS

T3: cynomolgus monkey nectin-4 protein expressed on the surface of HEK 293 cells (cynomolgus monkey, UniProt A0A2K5WES1 32-510)
T3 construct: whole, on cells
T3 sequence: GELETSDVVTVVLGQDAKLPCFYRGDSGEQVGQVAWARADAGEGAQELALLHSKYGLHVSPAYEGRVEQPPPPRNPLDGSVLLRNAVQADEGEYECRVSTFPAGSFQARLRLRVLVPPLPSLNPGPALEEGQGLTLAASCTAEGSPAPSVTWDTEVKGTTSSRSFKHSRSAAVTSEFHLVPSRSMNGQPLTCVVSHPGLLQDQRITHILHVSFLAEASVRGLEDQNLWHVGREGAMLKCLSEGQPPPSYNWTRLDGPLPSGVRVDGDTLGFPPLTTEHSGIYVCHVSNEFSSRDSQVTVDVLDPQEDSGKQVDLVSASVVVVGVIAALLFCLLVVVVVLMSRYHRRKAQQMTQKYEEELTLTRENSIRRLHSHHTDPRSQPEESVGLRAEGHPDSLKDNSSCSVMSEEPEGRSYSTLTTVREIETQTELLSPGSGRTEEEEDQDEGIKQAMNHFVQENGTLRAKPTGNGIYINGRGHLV

T4: cynomolgus Nectin-4 His tagged (cynomolgus, UniProt A0A2K5WES1 32-349)
T4 construct: also called Ag2
T4 sequence: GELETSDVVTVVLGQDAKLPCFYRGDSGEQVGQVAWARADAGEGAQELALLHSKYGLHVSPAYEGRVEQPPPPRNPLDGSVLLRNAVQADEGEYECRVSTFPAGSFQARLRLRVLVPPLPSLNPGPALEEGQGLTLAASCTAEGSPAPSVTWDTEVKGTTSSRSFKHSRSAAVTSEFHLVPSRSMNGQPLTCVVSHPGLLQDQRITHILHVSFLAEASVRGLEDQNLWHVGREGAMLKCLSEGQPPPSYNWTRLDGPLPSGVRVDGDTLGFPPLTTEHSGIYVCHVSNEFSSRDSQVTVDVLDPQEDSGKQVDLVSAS


What was measured:
[1] = target: T1, human nectin-4 protein expressed on the …; test: cell-based or functional assay
[2] = target: T2, recombinant human Nectin-4-His protein; test: ELISA, recombinant antibody on coated antigen
[3] = target: T1, human nectin-4 protein expressed on the …; test: flow cytometry, HEK 293 cells overexpressing the target
Protocol: (§1) Human embryonic kidney (HEK) 293 cells overexpressing human, cynomolgus monkey, rat, or mouse nectin-4 protein were produced. Cells were lifted with Versene to preserve cell surface proteins and were resuspended at 10e6/mL in PBS+2% FBS. 100 μl was added to a flow tube to test […]. Primary antibodies were diluted to […] and 10 μL was added for a total of 1 μg/test. Primary antibodies (or ADCs) were incubated with cells for 1 h on ice. Then, cells were washed 1× in 2 mL PBS+2% FBS and secondary antibody was added for detection. AF488-conjugated anti-human antibody from Jackson Immunoresearch, diluted according to the manufacturer's instructions+50% glycerol, was used at 1 μL/test-diluted to ⅕ the concentration in PBS+2% FBS and 5 μL were added per tube. The secondary reagent was incubated with the cells for 30 min, then cells were washed 2× in PBS+2% FBS and analyzed by flow cytometry on a BD FacsCanto instrument equipped with FACSDiva software.
(§2) Lead clones were tested for binding to human, cynomolgus monkey, rat, or mouse nectin-4 protein expressed on the surface of HEK 293 cells. Enfortumab was included as a positive control and an anti-FITC reactive antibody was included as a negative control.

[4] = target: T3, cynomolgus monkey nectin-4 protein …; test: as above
Protocol: as §1, §2

[5] = target: T4, cynomolgus Nectin-4 His tagged; test: ELISA, hybridoma supernatant
[6] = target: T2, recombinant human Nectin-4-His protein; test: ELISA, hybridoma supernatant
[7] = target: T2, recombinant human Nectin-4-His protein; test: ELISA, coated antigen
[8] = target: T1, human nectin-4 protein expressed on the …; test: cell-based or functional assay; remark: listed apart in the source

ELISA signal [5] | ELISA signal [6] | EC50 [7] | Binder | Cell kill IC50, HekNectin4 [8] | Cell kill IC50, MDA-MB468 [8] | Cell kill IC50, SKBR3 [8] | also measured
3.32 | 3.08 |  | Nectin-4 5D9H/5D9L (hybridoma supernatant) (antibody, V domains shown, Mouse antibody in hybridoma supernatant) VH: QVQLKQSGPGLVQPSQSLSITCTVSGFSLTNYGVHWVRQSPGKGLEWLGVIWSGGSTDYNAAFVSRLSISRDNSKSQVFFKMNSLQADDTAIYYCARSGKWYYFDYWGQGTTLTVSS VL: DIQMTQSPASLSVSVGETVTITCRASENIYSNLAWYQQKQGKSPQLLVYAATNLADGVPSRFSGSGSGTQYSLKINSLQSEDFGSYYCQHFWGTPTFGGGTKLEIK |  |  |  | 
 |  | 0.232 nM | Nectin-4 5D9 VH4/VL4 (antibody, V domains shown, Humanized; also called 5D9 VH variant 4 / 5D9 VL variant 4) VH: QVQLQQSGPGLVKPSETLSLTCTVSGFSLTNYGVHWVRQPPGKGLEWLGVIWSGGSTDYNPSLKSRLTISRDTSKNQVSFKMSSVTAADTAVYYCARSGKWYYFDYWGQGTLVTVSS VL: DIQMTQSPSSLSASVGDRVTITCRASENIYSNLAWYQQKPGKAPKLLVYAATNLADGVPSRFSGSGSGTDYTLTISSLQPEDFATYYCQHFWGTPTFGGGTKVEIK | 0.102 nM | 3.37 nM | 9.45 nM | 

Further lines, the binder ahead of its results:

Binder | ELISA signal [5] | ELISA signal [6] | EC50 [7] | Cell kill IC50, HekNectin4 [8] | Cell kill IC50, MDA-MB468 [8] | Cell kill IC50, SKBR3 [8] | also measured
Nectin-4 7H10H/7H10L (recombinant chimeric antibody) (antibody, V domains shown) VH: QVQLQQPGAELVKPGASVKLSCKASGYTFTTYWMHWVKQRPGRGLEWIGGIDPYGAHIKYNEMFKTKATLTVDKPSSTAYMQLSSLTSEDSAVYYCARGDYSNWWWTYWGQGTLVTVSA VL: DIVMTQSQKFMSTTVGDRVSITCKASQNVGTAVAWYQQIPGQSPKLLIYSASNRYTGVPDRFTGSGSGTDFTLTITNMQSEDLADYFCQHYSSYPWTFGGGTKLEIK |  |  |  |  |  |  | IC50, in vitro potency, HEK Cells + Nectin-4 [1]: 0.549 nM; EC50 [2]: 0.21 nM; Flow data [3]: 12300; Flow data [4]: 14100
Nectin-4 7H10H/7H10L (hybridoma supernatant) (antibody, V domains shown, Mouse antibody in hybridoma supernatant) VH: QVQLQQPGAELVKPGASVKLSCKASGYTFTTYWMHWVKQRPGRGLEWIGGIDPYGAHIKYNEMFKTKATLTVDKPSSTAYMQLSSLTSEDSAVYYCARGDYSNWWWTYWGQGTLVTVSA VL: DIVMTQSQKFMSTTVGDRVSITCKASQNVGTAVAWYQQIPGQSPKLLIYSASNRYTGVPDRFTGSGSGTDFTLTITNMQSEDLADYFCQHYSSYPWTFGGGTKLEIK | 3.49 | 3.26 |  |  |  |  | 
Nectin-4 12E11H/12E11L (hybridoma supernatant) (antibody, V domains shown, Mouse antibody in hybridoma supernatant) VH: QVQLKQSGPGLVQPSQSLSITCTVSGFSLTTYGVHWVRQSPGKGLEWLGVIWSGGSTDCNGAFISRLSIIKDNSKSQVFFKMNSLQADDTAIYYCARMTHWYFDVWGTGTTVTVSS VL: DIVMTQSQKFMSTTVGDRVSITCKASQNVNTAVAWYQQKPGQSPKLLIYSASYRYTGVPDRFTGSGSGTDFTLTISNMQSEDLADYFCQQYSNYPLTFGAGTKLELK | 3.44 | 3.21 |  |  |  |  | 
Nectin-4 3C12H/3C12L (hybridoma supernatant) (antibody, V domains shown, Mouse antibody in hybridoma supernatant) VH: QVQLKQSGPGLVQPSQSLSITCTVSGFSLTTYGVHWVRQSPGKGLEWLGVIWSGGNTDYNAAFISRLSISKDNSKSQVFFKMNSLQADDTAIYYCARMTHWYFDVWGTGTTVTVSS VL: DIVMTQSQKFMSTTVGDRVSITCKASQNVVTAVAWYQQKPGQSPKLLIYSASNRYTGVPDRFTGSGSGTDFTLTISYMQSEDLADYFCQQYSSYPLTFGAGTKLELK | 3.45 | 3.2 |  |  |  |  | 
Nectin-4 5D9 VH4/VL2 (antibody, V domains shown, Humanized; also called 5D9 VH variant 4 / 5D9 VL variant 2) VH: QVQLQQSGPGLVKPSETLSLTCTVSGFSLTNYGVHWVRQPPGKGLEWLGVIWSGGSTDYNPSLKSRLTISRDTSKNQVSFKMSSVTAADTAVYYCARSGKWYYFDYWGQGTLVTVSS VL: DIQMTQSPSSLSASVGDTVTITCRASQNIYSNLAWYQQKQGKAPKLLVYAATNLADGVPSRFSGSGSGTDFTLKINSLQPEDFATYYCQHFWGTPTFGGGTKVEIK |  |  | 0.236 nM | 0.29 nM | 3.13 nM | 4.95 nM | 
Nectin-4 5D9 VH5/VL1 (antibody, V domains shown, Humanized; also called 5D9 VH variant 5 / 5D9 VL variant 1) VH: QVQLQESGPGLVKPSETLSLTCTVSGGSLTNYGVHWVRQPPGKGLEWIGVIWSGGSTNYNPSLKSRVTISRDTSKNQVSLKLSSVTAADTAVYYCARSGKWYYFDYWGQGTLVTVSS VL: DIQMTQSPASLSASVGDTVTITCRASQNIYSNLAWYQQKQGKSPQLLVYAATNLADGVPSRFSGSGSGTQYTLKINSLQSEDFGTYYCQHFWGTPTFGGGTKVEIK |  |  | 33.4 nM | 30.3 nM | 19 nM | 13.3 nM | 
Nectin-4 Hybridoma 6C8H/6C8L (hybridoma supernatant) (antibody, V domains shown, Mouse antibody in hybridoma supernatant) VH: QVQLKQSGPGLVQPSQSLSITCTVSGFSLSTYGVHWVRQSPGKGLEWLGVIWSGGSTDYNAAFISRLTISKDNSKSQIFFKMNSLQADDTAIYYCARMMSWYFDVWGTGTTVTVSS VL: DIVMTQSQKFMSTSVGDRVSVTCKASQNVVTNVAWYQQKPGQSPKALIYSASYRYSGVPDRFTGSGSGTDFTLTISNVQSEDLAEYFCQQYNSYPLTFGAGTKLELK | 3.4 | 3.16 |  |  |  |  | 
Nectin-4 7 E8H/7 E8L (hybridoma supernatant) (antibody, V domains shown, Mouse antibody in hybridoma supernatant) VH: QVQLKQSGPGLVQPSQSLSITCTVSGFSLATYGVHWVRQSPGKGLEWLGVIWSGGSTDYNAAFISRLSISKDNSKSQVFFKMNSLQADDTAIYYCARNSHWYFDVWGTGTTVTVSS VL: DIVMTQSQKFMSTSVGDRVSVTCKASQNVVTNVAWYQQKPGQSPKALIYSASYRYSGVPDRFTGSGSGTDFTLTISHVQSEDLAEYFCHQYNNYPYTFGGGTKLEIK | 3.44 | 3.11 |  |  |  |  | 
